# Reference: patent publication US6979727B2, “Recombinant conglutinin and producing method thereof” (Fuso Pharmaceutical Industries, Ltd., priority 1995, dated 2005)
# T1: Recombinant Conglutinin (Bos taurus, UniProt P23805)
# T1 sequence (P23805 211-371): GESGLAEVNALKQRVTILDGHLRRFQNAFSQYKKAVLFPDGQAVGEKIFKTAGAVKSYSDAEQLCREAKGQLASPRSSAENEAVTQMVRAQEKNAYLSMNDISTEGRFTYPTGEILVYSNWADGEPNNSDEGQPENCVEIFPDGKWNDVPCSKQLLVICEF
# Experiments:
# [1] = tested on: Influenza A viruses; test: HI activity of collectins (method of Example 5); assay type: cell-based, Influenza A virus; conditions: Table 4
# [2] = tested on: Influenza A viruses; assay type: cell-based, Influenza A virus
# [3] = tested on: Hemagglutinin (HA); conditions: Table 4, Western blotting
# [4] = tested on: Influenza A viruses; test: Neutralization activity of collectins (method of Example 6); assay type: cell-based, Influenza A virus
# [5] = target: T1, Recombinant Conglutinin; test: Sugar inhibition of binding to mannan-coated plates (ELISA)
# [6] = target: iC3b on sheep erythrocyte cells (horse (from fresh horse serum)); test: cell-based or functional assay
# [7] = tested on: A/Ibaraki/1/90(H3N2); test: Hemagglutination Inhibition (HI) with chick's erythrocytes; assay type: cell-based, Influenza A virus
# [8] = tested on: sheep erythrocyte cells with iC3b; test: Conglutination activities, microtiter plate assay system; assay type: cell-based; conditions: 1% sheep erythrocyte cells with iC3b, 37° C., veronal buffer
# Method: Conglutination activities of the recombinant conglutinin and the native conglutinin were evaluated by Microtiter plate assay system. Sheep erythrocyte cells with iC3b were prepared according to the method of Wakamiya et al., (Biochem. Biophys. Res. Comm., Vol. 187, pp. 1270-1278, 1992). Namely, 1% sheep erythrocyte cells with iC3b were prepared by priming with a mixture of ten-fold diluted fresh horse serum and equivalent amount of anti-Forssmann antibody, and incubated at 37° C. for ten minutes.
# 50 μl of 1% sheep erythrocyte cells with iC3b and 50 μl of the recombinant conglutinin or 50 μl of the native conglutinin was added to the raw veronal buffer or the veronal buffer containing 30 mM N-acetylglucosamine. Then, they were incubated at 37° C. and the conglutination activities thereon were detected. The lowest concentration of the proteins to cause agglutination is regarded as titer of conglutination, then the results are shown in FIG. 8. In FIG. 8, Lane A is the native conglutinin, Lane B is the recombinant conglutinin and Lane C is the recombinant conglutinin containing 30 mM N-acetylglucosamine. Titer of conglutination on the native conglutinin was 0.16 μg/ml, while that of the recombinant conglutinin was 1.3-2.5 μg/ml.
# [9] = tested on: A/Adachi/1/57(H2N2); assay type: cell-based, Influenza A virus
# [10] = tested on: A/Suita/1/89(H1N1); test: Hemagglutination Inhibition (HI) with chick's erythrocytes; assay type: cell-based, Influenza A virus
# [11] = tested on: A/Ibaraki/1/90(H3N2); test: Neutralization activities in MDCK cells, PAP staining; assay type: cell-based, Influenza A virus
molecule,measurement,setting,value
native hMBP: native human mannan-binding protein (hMBP),HI Activity,[1],+
same,Present Method,[2],+
same,Viral Growth Inhibition Activity (Minimum Protein Concentration),[2],0.05 µg/mL
same,area of the infected focus / viral growth,"[2]; 0, 0.25 and 0.5 μg/ml, three days, MDCK cells (FIG. 14)",reduced the area of the infected focus in a dose-dependent manner
same,Viral Growth Inhibition Activity,"[2]; Table 6, class symbol",+
same,HA Binding,[3],−
same,Neutralization Activity (Minimum Protein Concentration),[4],> 5 µg/mL
same,Neutralization Activity,[4]; Table 4,−
same,Neutralization Activity,"[4]; Table 5, class symbol",−
OC[C@H]1O[C@H](O[C@H]2[C@H](O)[C@@H](O)[C@H](O)O[C@@H]2CO)[C@H](O)[C@@H](O)[C@@H]1O [Maltose],IC50,[5],25.8 mM
C[C@@H](O)[C@H](O)[C@H](O)[C@@H](O)C=O [D-Fucose],IC50,[5],55.3 mM
C[C@H](O)[C@@H](O)[C@@H](O)[C@H](O)C=O [L-Fucose],IC50,[5],37.8 mM
Native bovine conglutinin (from UniProt P23805 21-371),Titer of conglutination (lowest concentration of the proteins to cause agglutination),[6],0.16 µg/mL
OC[C@H]1O[C@@H](O[C@H]2[C@H](O)[C@@H](O)C(O)O[C@@H]2CO)[C@H](O)[C@@H](O)[C@H]1O (stereo partly drawn) [Lactose],IC50,[5],> 100 mM
O=C[C@@H](O)[C@@H](O)[C@H](O)[C@H](O)CO [D-Mannose],IC50,[5],12.3 mM
CC(=O)N[C@@H]1C(O)O[C@H](CO)[C@@H](O)[C@@H]1O (stereo partly drawn) [N-Acetyl-D-Mannosamine],IC50,[5],26.6 mM
O=C[C@H](O)[C@@H](O)[C@@H](O)[C@H](O)CO [Galactose],IC50,[5],46.8 mM
CC(=O)N[C@H]1C(O)O[C@H](CO)[C@@H](O)[C@@H]1O (stereo partly drawn) [N-Acetyl-D-Glucosamine],IC50,[5],0.65 mM
"Native Conglutinin: animal lectin of the calcium-dependent mammalian C-type lectin family existing in bovine serum (protein, UniProt P23805 21-371, looked up) Conglutinin: AEMTTFSQKILANACTLVMCSPLESGLPGHDGQDGRECPHGEKGDPGSPGPAGRAGRPGWVGPIGPKGDNGFVGEPGPKGDTGPRGPPGMPGPAGREGPSGKQGSMGPPGTPGPKGETGPKGGVGAPGIQGFPGPSGLKGEKGAPGETGAPGRAGVTGPSGAIGPQGPSGARGPPGLKGDRGDPGETGAKGESGLAEVNALKQRVTILDGHLRRFQNAFSQYKKAVLFPDGQAVGEKIFKTAGAVKSYSDAEQLCREAKGQLASPRSSAENEAVTQMVRAQEKNAYLSMNDISTEGRFTYPTGEILVYSNWADGEPNNSDEGQPENCVEIFPDGKWNDVPCSKQLLVICEF",HI Activity,[1],+
same,Expression Concentration on Hemagglutination Inhibition (HI),[7],0.08 µg/mL
same,Titer of conglutination (lowest concentration of the proteins to cause agglutination),[8],0.16 µg/mL
same,Expression Concentration on Hemagglutination Inhibition (HI),[9],>5 µg/mL
same,Present Method,[2],−
same,Expression Concentration on Hemagglutination Inhibition (HI),[10],0.08 µg/mL
same,Neutralization Titer (concentration to inhibit half (50%) of the infection),[11],0.08 µg/mL
same,HA Binding,[3],+
same,Neutralization Activity,[4]; Table 4,+
"Bovine Conglutinin: bovine conglutinin of Table 5; native or recombinant not stated (protein, UniProt P23805 21-371, looked up) Conglutinin: AEMTTFSQKILANACTLVMCSPLESGLPGHDGQDGRECPHGEKGDPGSPGPAGRAGRPGWVGPIGPKGDNGFVGEPGPKGDTGPRGPPGMPGPAGREGPSGKQGSMGPPGTPGPKGETGPKGGVGAPGIQGFPGPSGLKGEKGAPGETGAPGRAGVTGPSGAIGPQGPSGARGPPGLKGDRGDPGETGAKGESGLAEVNALKQRVTILDGHLRRFQNAFSQYKKAVLFPDGQAVGEKIFKTAGAVKSYSDAEQLCREAKGQLASPRSSAENEAVTQMVRAQEKNAYLSMNDISTEGRFTYPTGEILVYSNWADGEPNNSDEGQPENCVEIFPDGKWNDVPCSKQLLVICEF",Neutralization Activity (Minimum Protein Concentration),[4],0.09 µg/mL
same,Neutralization Activity,"[4]; Table 5, class symbol",+
"Human Surfactant Protein (hSP-D) Native: native human surfactant protein D (protein, UniProt P35247 21-375, looked up) Pulmonary …: AEMKTYSHRTMPSACTLVMCSSVESGLPGRDGRDGREGPRGEKGDPGLPGAAGQAGMPGQAGPVGPKGDNGSVGEPGPKGDTGPSGPPGPPGVPGPAGREGPLGKQGNIGPQGKPGPKGEAGPKGEVGAPGMQGSAGARGLAGPKGERGVPGERGVPGNTGAAGSAGAMGPQGSPGARGPPGLKGDKGIPGDKGAKGESGLPDVASLRQQVEALQGQVQHLQAAFSQYKKVELFPNGQSVGEKIFKTAGFVKPFTEAQLLCTQAGGQLASPRSAAENAALQQLVVAKNEAAFLSMTDSKTEGKFTYPTGESLVYSNWAPGEPNDDGGSEDCVEIFTNGKWNDRACGEKRLVVCEF",HI Activity,[1],+
same,Present Method,[2],−
same,HA Binding,[3],+
same,Neutralization Activity,[4]; Table 4,+
"Human Surfactant Protein (hSP-D) Recombinant: recombinant human surfactant protein D (protein, UniProt P35247 21-375, looked up) Pulmonary …: AEMKTYSHRTMPSACTLVMCSSVESGLPGRDGRDGREGPRGEKGDPGLPGAAGQAGMPGQAGPVGPKGDNGSVGEPGPKGDTGPSGPPGPPGVPGPAGREGPLGKQGNIGPQGKPGPKGEAGPKGEVGAPGMQGSAGARGLAGPKGERGVPGERGVPGNTGAAGSAGAMGPQGSPGARGPPGLKGDKGIPGDKGAKGESGLPDVASLRQQVEALQGQVQHLQAAFSQYKKVELFPNGQSVGEKIFKTAGFVKPFTEAQLLCTQAGGQLASPRSAAENAALQQLVVAKNEAAFLSMTDSKTEGKFTYPTGESLVYSNWAPGEPNDDGGSEDCVEIFTNGKWNDRACGEKRLVVCEF",HI Activity,[1],−
same,Present Method,[2],−
same,Neutralization Activity,[4]; Table 4,−
